Holding throughout (assay): SPR
(In general: In SPR one partner is held on a chip, and binding of the other changes the refractive index at the surface.)

In test [1] the target is GST-Staufen FL (Drosophila melanogaster) (UniProt P25159).
The target of test [2] is Tm1 FL (Drosophila melanogaster).
In test [3] the target is Tm1 1-335 (Drosophila melanogaster).
For test [4], the target named is Staufen dsRBD3-4-L4 (aa 578-951) (Drosophila melanogaster) (UniProt P25159).

Drawing on publication doi:10.1101/2024.12.18.629124, this text covers Kd for seven substances.

A word on the Kd: it is the concentration at which binding is half-saturated. Low readings indicate a tighter complex, high ones a looser complex.

Take “Khc-Tm1 complex (from UniProt P17210 1-975)”: the Kd in test [1] was determined as 13 nM.

For the substance “Staufen dsRBD3-4-5-C-term (domain or fragment)”, the Kd in test [2] turned out to be 152 nM.

In test [3], “Staufen dsRBD3-4-L4 (aa 578-951) (from UniProt P25159 578-951) (domain or fragment)” displayed a Kd of 224 nM.

In turn, Tm1 1-213 (domain or fragment) displayed a dissociation constant Kd in test [4] of 495 nM.

For the substance Tm1 1-213 L93Y (domain or fragment), in test [4], the Kd came out at 1420 nM.

Regarding Tm1 1-335 (domain or fragment), the Kd in test [4] was 262 nM; in test [1] it was 386 nM.

Take Tm1 FL (natural protein): in test [1], the Kd was found to be 86.6 nM.
